# T1: Cdc3p (S. cerevisiae, UniProt P32457 1-520)
# T1 sequence: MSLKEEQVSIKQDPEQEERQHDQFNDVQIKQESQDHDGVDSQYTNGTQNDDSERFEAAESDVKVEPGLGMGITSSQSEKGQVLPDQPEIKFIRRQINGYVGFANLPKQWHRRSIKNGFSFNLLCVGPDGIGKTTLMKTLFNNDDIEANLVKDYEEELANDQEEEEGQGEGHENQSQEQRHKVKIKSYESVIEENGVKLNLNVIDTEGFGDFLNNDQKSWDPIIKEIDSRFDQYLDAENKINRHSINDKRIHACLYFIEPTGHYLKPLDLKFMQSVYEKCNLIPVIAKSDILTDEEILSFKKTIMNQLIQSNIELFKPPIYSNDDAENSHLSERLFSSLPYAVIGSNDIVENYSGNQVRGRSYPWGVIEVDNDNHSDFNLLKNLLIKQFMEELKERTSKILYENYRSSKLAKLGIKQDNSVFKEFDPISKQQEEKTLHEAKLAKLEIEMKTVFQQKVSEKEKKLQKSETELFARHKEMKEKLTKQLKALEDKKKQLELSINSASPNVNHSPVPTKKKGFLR
# B1: Cdc11p (natural protein)
# chain: MSGIIDASSALRKRKHLKRGITFTVMIVGQSGSGRSTFINTLCGQQVVDTSTTILLPTDTSTEIDLQLREETVELEDDEGVKIQLNIIDTPGFGDSLDNSPSFEIISDYIRHQYDEILLEESRVRRNPRFKDGRVHCCLYLINPTGHGLKEIDVEFIRQLGSLVNIIPVISKSDSLTRDELKLNKKLIMEDIDRWNLPIYNFPFDEDEISDEDYETNMYLRTLLPFAIIGSNEVYEMGGDVGTIRGRKYPWGILDVEDSSISDFVILRNALLISHLHDLKNYTHEILYERYRTEALSGESVAAESIRPNLTKLNGSSSSSTTTRRNTNPFKQSNNINNDVLNPASDMHGQSTGENNETYMTREEQIRLEEERLKAFEERVQQELLLKRQELLQREKELREIEARLEKEAKIKQEE
# B2: Cdc12p (natural protein)
# chain: MSAATATAAPVPPPVGISNLPNQRYKIVNEEGGTFTVMLCGESGLGKTTFINTLFQTVLKRADGQQHRQEPIRKTVEIDITRALLEEKHFELRVNVIDTPGFGDNVNNNKAWQPLVDFIDDQHDSYMRQEQQPYRTKKFDLRVHAVLYFIRPTGHGLKPIDIETMKRLSTRANLIPVIAKADTLTAQELQQFKSRIRQVIEAQEIRIFTPPLDADSKEDAKSGSNPDSAAVEHARQLIEAMPFAIVGSEKKFDNGQGTQVVARKYPWGLVEIENDSHCDFRKLRALLLRTYLLDLISTTQEMHYETYRRLRLEGHENTGEGNEDFTLPAIAPARKLSHNPRYKEEENALKKYFTDQVKAEEQRFRQWEQNIVNERIRLNGDLEEIQGKVKKLEEQVKSLQVKKSHLK
# B3: Cdc10p (natural protein)
# chain: MDPLSSVQPASYVGFDTITNQIEHRLLKKGFQFNIMVVGQSGLGKSTLINTLFASHLIDSATGDDISALPVTKTTEMKISTHTLVEDRVRLNINVIDTPGFGDFIDNSKAWEPIVKYIKEQHSQYLRKELTAQRERFITDTRVHAILYFLQPNGKELSRLDVEALKRLTEIANVIPVIGKSDTLTLDERTEFRELIQNEFEKYNFKIYPYDSEELTDEELELNRSVRSIIPFAVVGSENEIEINGETFRGRKTRWSAINVEDINQCDFVYLREFLIRTHLQDLIETTSYIHYEGFRARQLIALKENANSRSSAHMSSNAIQR
# Molecular target: T1, Cdc3p
# Experiment: SEC + other: sucrose gradient sedimentation
row,Binder,stoichiometry N
1,B1,~0.5 Cdc11p per Cdc3p (1:2)
2,B2,~1 Cdc12p per Cdc3p (2:2)
3,B3,~1 Cdc10p per Cdc3p (2:2)
